The text below walks through data of a protein production outcome set (Wang et al. 2014).

A short description of the data set: label from the status in PepcDB records.
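Note: failed if final PepcDB status was selected cloned or expressed and not failed if soluble or beyond.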

For the sequence “MNFSESFKLSGLLCRFSPDGKYLASCVQYRLVIRDVTTLQILQLYTCLDQIQHIEWSADSLFILCAMYRRGLVQVWSLEQPEWHCKIDEGSAGLVASCWSPDGRHILNTTEFHLRITVWSLCTKSVSYIKYPKACQQGLTFTRDGRYLALAERRDCRDYVSIFVCSDWQLLRHFDTDTQDLTGIEWAPNGCVLAAWDTCLEYKVLLYSLDGRLLSAYCAYEWSLGIKSVAWSPSSQFLAIGSYDGKVRLLNHVTWKMITEFGHPATINNPKTVVYKEAEKSPLLGLGHLSFPPPRAMAGALSTSESKYEIASGPVSLQTLKPVADRANPRMGVGMLAFSSDSYFLASRNDNVPNAVWIWDIQKLKLFVVLEHMSPVRSFQWDPQQPRLAICTGGSKVYLWSPAGCVSVQVPGEGDFPVLGLCWHLSGDSLALLSKDHFCLCFLETKERVGTAYEQRDGMPRT”, the protein production result is on record as “failed”.
For “MNFVELAKKRYSCRNYQDRKVEKEKLEKVLDVARIAPTGGNRQPQRLIVIQEKEGINKLSKAANIYDAPLAILVCGDKDKVWTRPFDGKQLTDIDTSIVTDHMMLQATELGLASVWVCYFNPDIIREEFSLPDNLEPINILLMGYESKIPESPERHEKTRVPLSEIVSYETL”, the protein production result is “failed”.
For “MNFVLSDVADAEAEKAIRDPLVAYNLARFGESDKRDLNITIRNDDNSVTGGLVGHTARGWLYVQLLFVPEAMRGQGIAPKLLAMAEEEARKRGCMGAYIDTMNPDALRTYERYGFTKIGSLGPLSSGQSITWLEKRF”, the protein production result is “not failed”.
With “MNGKLNLPINTVIGVSLLVLLLVPALYFAKPVLLPMVISTFVALLFSPLINYFEDKGLPRTITVVVTLTLLVSVSILGLAAISEPAKQWWAELPSIVQNVSQEVNEVTKASSEHMNAPLELASDMNIDEMGNNTVFSLLKALATTTPTLLTQAMIVLFMVYFMLNHGRSLFRKSVSRLRGFSKQRQAVELVQALQKDLSRYIGTITLVNAGLGLCVGLVFFVLGLEDPFLWGAFAGVMNFAPYLGPVISMASFGFVAYLQLDSVSFMLTVVSIYLLLNLIESQFVTPTLLGRRFNLNPLVIFMWLVFWGWLWGGMGLLIGVPLLVCINILADRLALCGSTNI” the entry was “failed”; with “MNGMGGALRAASGKLNGLLNFARQLAFVKLFGVYLPRNNQFNNATACADLLCKAEVIPGSESHFRPRRQPDASGAASGIAGRQSAGASGARQQSSNEENHDARRHGRRGRVHRDRAFRNRMRGERSARRHRSGIGRLIRRALRSRAAHGIARRRVSRAIAGGVGRGRPGRGHDARGGDAGRRRRDGRAIRAAAGCGHARAGRARAGHAHVGRARVRRHDSRRFVAMGEYGGLAARLGCARRFQHRCAGDAARLVRGCAAGARREPRPHVRADPGDSLSRQSRVARCRARSGLMRVLFAISLLAVAWLAGCTGLRGGIERDARRESNESAALFKRASDGDNSVHALAPVVVDDGLWVSAGAVKLRSGEQLPPLFDEPASFDRAVSSLSEFAEQITRLTQVPTQVAASAQQAAARSQQGGGADGAARSAPVFLDAAGARSTPPLPPGMPGGASAGGGKAGGSGAGPDGGAGTSFAPVRIVYAGGTLRGLLDAACARFGVFWKYEQGTIRFFFTDTRTFQVNAIPGDSSLNASVVSGATSDGTSGGSQSGGSGGGINGASGGTTGLTANNTANTAVNSQLSVFNGLQSAIQSMLSRYGSSVSSPATGSISVTDTPDVLERVAAFMTQQNRSLSRQVLLNVTVLSVSLKAGDAYGIDWSLVYKTMSAGFNITNPFNPVSLTKPADLSATVLSPTSRFNGTKLLIRALSQQGTVRRKTSASVTTLNNQPVPVQVATQTGYLASVSTTNTANVGSSTALTPGVVTTGFNMTLLPHVLDDGTVMLQFSTNISSLLQLKEVSSSTGGRSAARIQTPDVDMRNFLQRVAMKSGETLVISGYEGANDSLDERGVGTPKMIALGGGYEAQRAREVIVILITPVTQRGGA”, “failed”; with “MNGPAYEGGFKKFINGEFRMKAEKNLNKTRNISYAGLFFSLALTIFKLFAGLLGHSTALLADAVRSFSELINELVKLLDLSIAGKPEDWSHNYGHGKVATLVTGAGACVLLFAGIQSASLASGELLMFIQGKETEAPELFALSAAAFALVSKEIIPLFSRLAWKQTDKSLSETDIYTGNSRLKSLGLSCFVTLGIGCTFLPGKNWAVTDSLIAVLLSLYLLGSSGRLLYGTANELIEASLDEENNRKIREIINRTEGVLGSGELKTRRIGNGIAINACITVNSSLNIQEVAEIADLAEERLKKAYGEGIYTLIKAEPALERNCSFQKKPKISKEGGNKIIV”, “failed”.
With “MNGRMSLFLRNSIGVMAAMLAGVATPVANAMDNSLASGVVRFALDTGEASSVVGLAMKLEGESADYLQARLMLASGQHDEARAGFEGVFNGASHRGEAALALAEMAQEDGDLTGAENWYQQARRTGYGEVAQKALLGLAELVRIQGKTDAAGQYLARMEDGYWAAVGYMNLAADFARDDLDSSRALVSLRVAMAMAAKDTDTSRSRALLDQLNLRAGYLALGSDDYDKAIDFLEKVSLESYHTPQALYLHGLALSSKGNHRAAMQSWHRAKKFPLAFPGVSDAWIGMGRGYDLSGYPGQAGESWLAANAAYEGERVTLGKLSERITAEGAYKALVQDARSDDIQWFLADNRTLTQPRMAYLLRFMEEPGAQVAVRRVARLDEMVATLDASKYNLEVFIQALEVFMASAGSGGVAPQTAGLEQQQSDLESRLNGLVEQAATPAQVAELRQLKQSLAGAGRRMGALNQQVVQRPERLETVLDDAGALRDATKDLRYKTLSLREQAARELDALALAFVKKQTQRMTHALDKTEQQIAHLYEYLALENLGEGAQ” the entry was “failed”; with “MNGRRERAQGTEWAGDPAGCGTMERMPSALPDGEPVPADGALPASALAGAADRPLGFYLHVPYCATRCGYCDFNTYTATELRGTGGVLASRDNYADTLVDEVRLARKVLGDDPREVRTVFVGGGTPTLLAAGDLVRMLGAIRDEFGLAPDAEITTEANPESVDPAYLATLRAGGFNRISFGMQSAKQHVLKILDRTHTPGRPEACVAEARAAGFDHVNLDLIYGTPGESDDDWRASLDAALGAGPDHVSAYALIVEEGTQLARRIRRGEVPMTDDDVHADRYLIAEEALSAAGYDWYEVSNWATSDAGRCLHNELYWRGADWWGAGPGAHSHVGGVRWWNVKHPGAYAGALAAGKSPGAGREILTDEDRRVERILLELRLREGVPLSLLREAGLAASRRALSEGLLQEGPYEAGSAVLTLRGRLLADAVVRDLVD”, “failed”; with “MNGSNHMKNKTLVISGATRGIGKAIFVRFAQSGVNIAFTYNKNVEEANKIIEDVEQKYSIKAKAYSLNVLEPEQYTELFKQIDADFDRVDFFISNAIIYGRSVVGGFAPFMRLKPKGLNNIYTATVLAFVVGAQEAAKRMQKIGGGAIVSLSSTGNLVYMPNYAGHGNSKNAVETMVKYAAVDLGEFNIRVNAVSGGPIDTDALKAFPDYVEIKEKVEEQSPLKRMGNPNDLAGAAYFLCDETQSGWLTGQTIVVDGGTTFK”, “failed”.
For “MNHRDKQIDSGSGSGENRRTYDCDICKRGFTNPQALGGHNNIHRRERERYPSSSSSSHSFPFSLPLPSQSPSSSTNFTNPPPYFPTIESYLHQGSQPPINPSHNTQYFGSSSSSRGGGRFAQGASHDLNLSLGLGSMNEDDDTHRSPPETGGSQPQDGDLDLDLRLGGHRHH” the value was “failed”.
Regarding “MNHRLAGIISPLGHITTDPIRSSSVNPSSPVYYKTIVNHFKSQTGNHVSPGLTNQEISAVESSHGFSFPLDLRSILQTGLPVGTNFPNWRTGSNRNNLLLPLLNLSQHVVRNGFWVDSWGIRPGNDAEALSLVKKLIEIAPVLVPVYGDFYVPSTTPNLAGNPVFQIDGDGVRELSCDVVGFLKGIGRSETPTEDRRRRRRPRRVEFWSDVAEGWRFVVARDYTRDWWSALGFEGLTACLDDAFWKLREAGWTEDDVRDMMMMDSVDQNTCIQQQTQTQSRDVVYAFGDEGMNERDRDTCTEDEDHQKGEVTTLRHLLLYDRLMS”, the protein production entry was “failed”.
With “MNHWSMPPNPEKALMLAQRAVAVFVYDAVRLEGINFTLPEVQTLLQGVTVGGHRLSDQQIAVNQGEAWKLLFQMIRDGRFELTPDCAMALHGVAAKEEALEWGCFRSGSVLIAGTEYEPPAASELPTRFDRMIDELQHMDDVHDQAVHLFLTMARCQFFYDVNKRMGRFMMNGHLLSNGYPAINIPASSQLEFNELMLRFYDSGDQREMNAFVRSCMDERVVLIMKEELEHHHHHH” the entry was “failed”; with “MNIFIAGLNYNMSEAELGELFAEYGEVVSVKIIMDRETGRSKGYGFVEMADDEAGDKAIAALNEVDMDGKTLSVSVARPREERPRRSYGNNGGGGYRGGNNSRGGGYGGSRGDNGYGGGRNRY”, “failed”; with “MNIGRHLLLVLFGWLPVRLGFAADAISVVDKQPVNWVAITMFAVFVLITLWITQWAAKKTRSSADFYTAGGTVTGFQNGLAIAGDYVSAASFLGITSAVMANGYDGMLYAIGFLVGWPILTFLIAERLRNLGKYTFADVVAYRFAATSVRLFASVSTLVVVLCYLIAQMVGAGALIRLLFGLDYWVAMVLVGGLMMVYVLFGGMAATTWVQIIKAVLLLIGATFMAVMIMRRFGFNFEGLFASAVEVKTQIAMAGGKSGEEAKALGLSIMAPGSFIKDPISAISLGIALVFGTAGLPHILMRFFTVPDARQARHSVLWAITWIGYCYILMFIIGFGAIVLVLANPQYADIASGTIRGGQGAANMAAVLVAKVVGGNVFMGFVSAVAFATILAVVAGLALSGASAVSHDVYAMVIKQGKPSSDTELLVSRVTTAVLGVVAVLLGIVFQKQNVAFMVSLAFAIAASANFPVLVLSLFWKNCTTRGAVIGGFLGLISSLVLTVLSPSVWVDTLGHSVDSVRFPYTSPALFSMTIGFVGIWLFSVLDRSGRAAKERVAFKAQQVRAETGLGASKMSPN”, “failed”.
Regarding “MNIKLKRTLISLVAFSMTCLPFVGTGSSVKAASNDATINVAAKHQTIRGFGASSAWCGALSDTCMDTLYKNAGLDILRVRIAPNEGWNRGDYRAWADELSNAKKVRARGGIVFATPWTPPASMKTNNTTTGANKGSLKPSSYAAYAAYLKTFVKYMSDNGAPLYALSLQNEPDWAPDYDACTWTAQQFHDFLKQYGASLSSTIKIIMPESLGFNPAMSDPTLNDPTTAQYVSIIGGHLYGSPIRDYPLARNKGKDIWMTEHYLEGNDPGTCVKLAKEIHDCMTIGNMNAYVYWWISGDQNGLYNTRTNETYKKTYVMGQFSKFIGNGYSRVDATNSPQSNVYVSAYTGNNKVVIVAINQGTYPVNQSFNVQNSTVSNVSSWVSSGTLNMAKTNSNISAANGRFNASLPAQSVTTFVADLNSTNPTTDPTTNPTPGSTVTLNNGWYYIKNINAQKYLQVASNTGKAGQNVELGSGSGAAGQKWYLTNTGDGYVTLKSALGNYMLDVSYGENKDGSNIQIFNAYSGDAQKFSVKASSKDGQYFVSTKSSNGTKVLDDYNFGTADGTNVCQWTYGGNANQLWAFEPTNN”, the protein production entry is recorded as “failed”.
With “MNIKSAFIRKRGEKFYVYVEYIEETTGKIKQKSYGSYEKKKDAEKHLIEIKSTINNNKFVAPKDITFVERCYKYIDMNKNNWSPYTVTSTKSWVKNYIEPFFKNLKLTEVNPSSVQAFVNYNFNNSTFTSAKVRYSFLSSVIREAYRLREIQENSCDFIKLPSKEKYSTNEIYNREEVLLLIEKLLGNNIEIPILLMLLLGLRMGEATGLRWSDVDLDNNLINVNQILVYSNGKISFKEPKTPKSKRALSAPKELIEKLKIEKLRQSKLKLQGILENKNNLVCLNTNLNPFLPSSLRKTFHNFTKKNNLKKIRIHDLRHTSATLLLLGGTNMKVVSERLGHTDIKITMNRYSHVLKEMDKEASDNLSELLFK” the entry was “failed”.
On to “MNILTLMETFSAVVEAGSFTGAAEKLGLSKSFVSKQVSTLEVELGCRLLYRTTRTLSLSDEGSQFYNHCKIIMAEAENARAEVMDRQGAPRGKIRMTIPQSLIISGFGQLLIDFQLQYPEIKLEVIASGRIEDLVKEGIDIALRVGQLEDSSLISRRLMDCTFQVVASSDYIKKWGEPFQPADLMQHNCLIYGDSKINKGWPFRSPSGESITVKAKGNFISNDGGLVVEGMLNGLGIGFGPSFLFNEHVEKGRLKLLLSDYYQPPTAISALYPLNRNLSRRIRLLIDYLSERLSV”, for which the protein production entry is reported as “not failed”.
